Experimental data reported in patent publication US7868138B2, “Methods for generating polynucleotides having desired characteristics by iterative selection and recombination” (priority 1994, dated 2011).

B1: TEM-1: wild-type bacterial TEM-1 betalactamase, gene on a pUC18 derivative (protein, UniProt P62593 24-286, looked up)
Beta-lactamase TEM: HPETLVKVKDAEDQLGARVGYIELDLNSGKILESFRPEERFPMMSTFKVLLCGAVLSRVDAGQEQLGRRIHYSQNDLVEYSPVTEKHLTDGMTVRELCSAAITMSDNTAANLLLTTIGGPKELTAFLHNMGDHVTRLDRWEPELNEAIPNDERDTTMPAAMATTLRKLLTGELLTLASRQQLIDWMEADKVAGPLLRSALPAGWFIADKSGAGERGSRGIIAALGPDGKPSRIVVIYTTGSQATMDERNRQIAEIGASLIKHW

Assays:
CHO cells = test: Fluorescence spectroscopy of CHO cells expressing GFP; assay type: cell-based, chinese hamster; conditions: 2 mM sodium butyrate, 'wt' construct
Procedure: The wildtype and the cycle 2 and 3 mutant versions of the GFP gene were transferred into the eukaryotic expression vector Alpha+ (16) as an EcoRI-XbaI fragment. The plasmids were transfected into CHO cells by electroporation of 10^7 cells in 0.8 ml with 40 μg of plasmed at 400V and 250 μF. Transformants were selected using 1 mg/ml G418 for 10-12 days.
Improvements in autonomous characteristics such as self-folding can be tranferable to different cellular environments. After being selected in bacteria, the ‘cycle 3’ mutant GFP was transferred into the eukaryotic Alpha+ vector and expressed in chinese hamster ovary cells (CHO). […] FACS sorting confirmed that the average fluorescence signal of CHO cell clones expressing ‘cycle 3’ was 46-fold greater than cells expressing the ‘wt’ construct (FIG. 18B).

E. coli XL1-blue cells = test: Minimum inhibitory concentration (MIC) of cefotaxime by plating on cefotaxime plates; assay type: cell-based
Procedure: The minimum inhibitory concentration (MIC) of cefotaxime on bacterial cells lacking a plasmid was determined by plating 10 μl of a 10^−2 dilution of an overnight bacterial culture (about 1000 cfu) of E. coli XL1-blue cells (Stratagene, San Diego Calif.) on plates with varying levels of cefotaxime (Sigma, St. Louis Mo.), followed by incubation for 24 hours at 37° C.
Growth on cefotaxime is sensitive to the density of cells, and therefore similar numbers of cells needed to be plated on each plate (obtained by plating on plain LB plates). Platings of 1000 cells were consistently performed.
Growth on cefotaxime is dependent on the cell density, requiring that all the MICs be standardized (in our case to about 1,000 cells per plate). […] The 5 largest colonies grown at […] were plated for single colonies twice, and the Sfi1 inserts were analyzed by restriction mapping of the colony PCR products.
After selection, the plasmid of selected clones was transferred back into wild-type E. coli XL1-blue cells (Stratagene, San Diego Calif.) to ensure that none of the measured drug resistance was due to chromosomal mutations.

| Molecule | increase of the fluorescence signal (CHO cells) | minimum inhibitory concentration of cefotaxime (E. coli XL1-blue cells; 24 hours at 37° C., about 1,000 cells per plate) | MIC (E. coli XL1-blue cells; cefotaxime, mutants in identical plasmid background pUC182Sfi, no literature source in table) |
| --- | --- | --- | --- |
| CCCC(=O)[O-].[Na+] [sodium butyrate] | 4-8 fold |  |  |
| B1 |  | approximately 0.02 μg/ml | 0.02 µg/mL |
